In the Immune Epitope Database (IEDB):
Blank lines part the entries; values can stand above or below the sequence they belong to.

Columns and labels:
HLA-B*18:01 [1] = assay: IEDB peptide-MHC binding, purified MHC/competitive/radioactivity; filed as Kd, often an IC50 or EC50 that approximates it; ≥ and ≤ were set here for values at or beyond the usual limits of such assays
HLA-B*40:01 = assay: as above
HLA-B*40:02 = assay: as above
HLA-B*44:02 = assay: as above
HLA-B*44:03 = assay: as above
HLA-B*45:01 = assay: as above
HLA-A*02:01 [2] = assay: as above
HLA-A*01:01 = assay: as above
HLA-A*23:01 = assay: as above; conditions: source organism: SARS coronavirus Tor2
HLA-A*24:02 = assay: as above; conditions: source organism: SARS coronavirus Tor2
HLA-A*26:01 [3] = assay: as above
HLA-A*29:02 = assay: as above
HLA-A*30:02 = assay: as above
HLA-A*30:01 = assay: as above; conditions: source organism: Mammarenavirus guanaritoense
HLA-A*32:01 = assay: as above; conditions: source organism: Mammarenavirus guanaritoense
HLA-A*02:01 [4] = assay: IEDB peptide-MHC binding, purified MHC/direct/fluorescence; filed as Kd, often an IC50 or EC50 that approximates it; ≥ and ≤ were set here for values at or beyond the usual limits of such assays; conditions: source organism: Orthohantavirus andesense
HLA-A*03:01 = assay: as above; conditions: source organism: Orthohantavirus tulaense
HLA-A*26:01 [5] = assay: IEDB peptide-MHC binding, purified MHC/competitive/fluorescence; filed as Kd, often an IC50 or EC50 that approximates it; ≥ and ≤ were set here for values at or beyond the usual limits of such assays; conditions: source organism: Orthohantavirus tulaense
HLA-B*15:01 = assay: as above; conditions: source organism: Orthohantavirus tulaense
HLA-B*18:01 [6] = assay: as above; conditions: source organism: Orthohantavirus tulaense
HLA-B*27:03 = assay: as above; conditions: source organism: Orthohantavirus tulaense
HLA-B*51:01 = assay: as above; conditions: source organism: Orthohantavirus tulaense
HLA-B*57:01 = assay: as above; conditions: source organism: Orthohantavirus tulaense
[7] = source organism: Lymphocytic choriomeningitis virus (strain Armstrong)
[8] = source organism: SARS coronavirus Tor2
[9] = source organism: Mammarenavirus guanaritoense

Sequence: LDVLCLSSL
Kd (HLA-B*18:01 [1]; [7]): ≥ 22.9 µM
Kd (HLA-B*40:01; [7]): 6.12 µM
Kd (HLA-B*40:02; [7]): 0.0434 µM
Kd (HLA-B*44:02; [7]): 7.76 µM
Kd (HLA-B*44:03; [7]): 7.54 µM
Kd (HLA-B*45:01; [7]): 8.17 µM

Sequence: LTDLGLIYTA
Kd (HLA-A*02:01 [2]; source organism: Lassa virus GA391): 0.893 µM

Kd (HLA-A*02:01 [2]; source organism: Homo sapiens): 2.63 µM
Sequence: LTVILGVLL

Sequence: LVVDFSQFSR
Kd (HLA-A*02:01 [2]; source organism: Hepatitis B virus subtype adw2): ≥ 35 µM

Sequence: MEAQFLYLY
Kd (HLA-A*01:01; [8]): 1.57 µM
Kd (HLA-A*23:01): 16.8 µM
Kd (HLA-A*24:02): 9.6 µM
Kd (HLA-A*26:01 [3]; [8]): 1.93 µM
Kd (HLA-A*29:02; [8]): 0.00598 µM
Kd (HLA-A*30:02; [8]): 0.0117 µM
Kd (HLA-B*18:01 [1]; [8]): 0.000292 µM
Kd (HLA-B*40:01; [8]): 1.85 µM
Kd (HLA-B*40:02; [8]): 2.22 µM
Kd (HLA-B*44:02; [8]): 0.00215 µM
Kd (HLA-B*44:03; [8]): 0.000933 µM
Kd (HLA-B*45:01; [8]): 0.0122 µM

Sequence: METDFLELAM
Kd (HLA-B*18:01 [1]; [8]): 0.0376 µM
Kd (HLA-B*40:01; [8]): 0.0156 µM
Kd (HLA-B*40:02; [8]): 0.289 µM
Kd (HLA-B*44:02; [8]): 0.0243 µM
Kd (HLA-B*44:03; [8]): 0.0109 µM
Kd (HLA-B*45:01; [8]): 0.123 µM

Sequence: MLDDLTMGY
Kd (HLA-A*01:01; [9]): 0.00112 µM
Kd (HLA-A*26:01 [3]; [9]): 7.29 µM
Kd (HLA-A*29:02; [9]): 0.125 µM
Kd (HLA-A*30:01): 12.9 µM
Kd (HLA-A*30:02; [9]): 0.226 µM
Kd (HLA-A*32:01): 2.14 µM

Sequence: PDTTYLGPL
Kd (HLA-B*18:01 [1]; [7]): ≥ 75.3 µM
Kd (HLA-B*40:01; [7]): ≥ 76.1 µM
Kd (HLA-B*40:02; [7]): ≥ 77.2 µM
Kd (HLA-B*44:02; [7]): ≥ 77.9 µM
Kd (HLA-B*44:03; [7]): ≥ 78.1 µM
Kd (HLA-B*45:01; [7]): ≥ 21.9 µM

Sequence: QELLIQQWI
Kd (HLA-B*18:01 [1]; [8]): 8.66 µM
Kd (HLA-B*40:01; [8]): 0.186 µM
Kd (HLA-B*40:02; [8]): 0.0617 µM
Kd (HLA-B*44:02; [8]): 0.0912 µM
Kd (HLA-B*44:03; [8]): 13.5 µM
Kd (HLA-B*45:01; [8]): 0.316 µM

Sequence: REAVESCPLM
Kd (HLA-B*18:01 [1]; [7]): 3.04 µM
Kd (HLA-B*40:01; [7]): 0.105 µM
Kd (HLA-B*40:02; [7]): 0.00986 µM
Kd (HLA-B*44:02; [7]): 0.525 µM
Kd (HLA-B*44:03; [7]): 2.18 µM
Kd (HLA-B*45:01; [7]): 8.14 µM

Sequence: REGVFVFNG
Kd (HLA-B*18:01 [1]; [8]): ≥ 39 µM
Kd (HLA-B*40:01; [8]): 1.55 µM
Kd (HLA-B*40:02; [8]): 0.222 µM
Kd (HLA-B*44:02; [8]): 4.77 µM
Kd (HLA-B*44:03; [8]): 0.298 µM
Kd (HLA-B*45:01; [8]): 0.136 µM

Sequence: RELNGGAVT
Kd (HLA-B*18:01 [1]; [8]): ≥ 53.3 µM
Kd (HLA-B*40:01; [8]): 0.212 µM
Kd (HLA-B*40:02; [8]): 0.0219 µM
Kd (HLA-B*44:02; [8]): 9.11 µM
Kd (HLA-B*44:03; [8]): 7.29 µM
Kd (HLA-B*45:01; [8]): 0.0439 µM

Sequence: SDEVARDLSL
Kd (HLA-B*18:01 [1]; [8]): ≥ 43.2 µM
Kd (HLA-B*40:01; [8]): 0.353 µM
Kd (HLA-B*40:02; [8]): 10.6 µM
Kd (HLA-B*44:02; [8]): 5.65 µM
Kd (HLA-B*44:03; [8]): 3.87 µM
Kd (HLA-B*45:01; [8]): 0.262 µM

Sequence: SLFGAAVSL
Kd (HLA-A*02:01 [4]): ≤ 0.0001 µM
Kd (HLA-A*03:01): ≥ 20 µM
Kd (HLA-A*26:01 [5]): ≥ 20 µM
Kd (HLA-B*15:01): 0.0497 µM
Kd (HLA-B*18:01 [6]): ≥ 20 µM
Kd (HLA-B*27:03): ≥ 20 µM
Kd (HLA-B*51:01): ≥ 20 µM
Kd (HLA-B*57:01): ≥ 20 µM

Kd (HLA-A*02:01 [2]; source organism: Homo sapiens): 1.44 µM
Sequence: SLHVGTQCA

Kd (HLA-A*02:01 [2]; source organism: Homo sapiens): ≥ 50 µM
Sequence: SLRVLAAGL

Sequence: TEQFINYCL
Kd (HLA-B*18:01 [1]; [9]): 0.399 µM
Kd (HLA-B*40:01; [9]): 0.306 µM
Kd (HLA-B*40:02; [9]): 0.0323 µM
Kd (HLA-B*44:02; [9]): 0.1 µM
Kd (HLA-B*44:03; [9]): 0.416 µM
Kd (HLA-B*45:01; [9]): 0.129 µM

Sequence: WEILKFLITG
Kd (HLA-B*18:01 [1]; [8]): ≥ 41.6 µM
Kd (HLA-B*40:01; [8]): 19 µM
Kd (HLA-B*40:02; [8]): 0.542 µM
Kd (HLA-B*44:02; [8]): 8.58 µM
Kd (HLA-B*44:03; [8]): 2.93 µM
Kd (HLA-B*45:01; [8]): 1.17 µM
